The record followed here is PMC12629983, “Nanobody-based recombinant antivenom for cobra, mamba and rinkhals bites” (Nature, 2025).

What all share (settings): both partners purified
The target in assay [1] is T1, lNTx-3 (Dendroaspis polylepis (L1309), fraction …, biotin (EZ-Link NHS-PEG4-Biotin, amine coupling)).
T1 chain: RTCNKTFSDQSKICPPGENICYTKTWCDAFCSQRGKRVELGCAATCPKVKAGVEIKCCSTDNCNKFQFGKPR
As to the kind of experiment: BLI; […] (0.5 µg/ml) […], pH 7.2; 600 s association, 600 s dissociation; global 1:1 fit. (In general: Biolayer interferometry detects binding as a change in optical thickness at a sensor tip.)

Assay [2] has as its target T2, lNTx-7 (Naja kaouthia (Latoxan L8114), biotin (EZ-Link NHS-PEG4-Biotin, amine coupling)).
T2 chain: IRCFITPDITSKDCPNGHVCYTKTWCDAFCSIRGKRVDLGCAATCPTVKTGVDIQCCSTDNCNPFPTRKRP
The assay is described as above.

The target of assay [3] is T3, sNTx-7 (Naja annulifera (L1314), fraction Nan3, biotin (EZ-Link NHS-PEG4-Biotin, amine coupling)).
T3 chain: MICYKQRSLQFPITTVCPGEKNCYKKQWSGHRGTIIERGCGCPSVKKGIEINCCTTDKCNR
The description is as above.

The target in assay [4] is T4, sNTx-6 (Naja melanoleuca (L1318), fraction Nm3, biotin (EZ-Link NHS-PEG4-Biotin, amine coupling)).
T4 chain: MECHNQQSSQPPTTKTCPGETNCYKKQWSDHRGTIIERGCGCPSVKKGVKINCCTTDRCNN
The description is as above.

Assay [5] deals with T5, sNTx-5 (Hemachatus haemachatus (L1311), …, biotin (EZ-Link NHS-PEG4-Biotin, amine coupling)).
T5 chain: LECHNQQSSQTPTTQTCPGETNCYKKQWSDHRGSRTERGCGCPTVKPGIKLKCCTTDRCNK
The description is as above.

Assay [6] deals with T6, sNTx-1 (Dendroaspis jamesoni (L1308, Cameroon), …).
T6 chain: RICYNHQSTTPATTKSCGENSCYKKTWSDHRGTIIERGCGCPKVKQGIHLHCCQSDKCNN
The assay is described as above.

Assay [7] addresses T7, α-short-chain neurotoxin (P01426) from N. pallida (Naja pallida, UniProt P01426).
T7 construct: also called short neurotoxin 1 (P01426); source: bought: Latoxan (lyophilized)
In words: crystal structure.

In assay [8] the target is T8, KUN-2 (Dendroaspis polylepis (L1309), fraction …, biotin (EZ-Link NHS-PEG4-Biotin, amine coupling)).
T8 construct: source: venom fraction isolated from whole venom (Latoxan) by RP-HPLC; biotinylated
T8 chain: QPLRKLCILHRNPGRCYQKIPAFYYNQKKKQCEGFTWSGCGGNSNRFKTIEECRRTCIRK
In words: BLI; […] (0.5 µg/ml) […], pH 7.2; 600 s association, 600 s dissociation; global 1:1 fit.

Assay [9] addresses T9, KUN-1 (Dendroaspis jamesoni (L1308, Cameroon), …, biotin (EZ-Link NHS-PEG4-Biotin, amine coupling)).
T9 construct: source: venom fraction isolated from whole venom (Latoxan) by RP-HPLC; biotinylated
T9 chain: T8 chain
Described as above.

Assay [10] addresses KUN-2 (Dendroaspis polylepis (L1309), UniProt P00979, biotin (EZ-Link NHS-PEG4-Biotin, amine coupling)). As to the kind of experiment: BLI; […], pH 7.2; 600 s association, 600 s dissociation; global 1:1 fit.
Assay [11] addresses T10, PLA2-3 (Naja nubiae (Egypt, L1342), fraction …, UniProt P14556).
T10 construct: also called basic phospholipase A2 nigexine (P14556)
In words: cryo-EM structure.

Assay [12] concerns the target protein of Hemachatus haemachatus PRINTED:77012629983_21 (Hemachatus haemachatus, fraction Hh9 …). As to the kind of experiment: BLI; […] (0.5 µg/ml) […], pH 7.2; 600 s association, 600 s dissociation; global 1:1 fit.
Assay [13] has as its target T11, Og XI-1 (Dendroaspis jamesoni venom (L1308); …).
T11 construct: source: venom fraction isolated from whole venom (Latoxan) by RP-HPLC; biotinylated
T11 chain: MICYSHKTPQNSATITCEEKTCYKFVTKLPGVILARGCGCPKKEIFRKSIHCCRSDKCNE
The assay is described as above.

For assay [14], the target named is T12, Og XI-2 (Dendroaspis viridis, UniProt P01405).
T12 construct: source: venom fraction isolated from whole venom (Latoxan) by RP-HPLC; biotinylated
The description is as above.

In assay [15] the target is T13, Cardiotoxin (P01468) from N. pallida (Naja pallida, UniProt P01468).
T13 construct: also called cardiotoxin (UniProt: P01468); source: bought: Latoxan (lyophilized)
As to the kind of experiment: crystal structure.

Assay [16] has as its target CTx-10 (Naja pallida (Kenya, L1321)); Latoxan …, UniProt P01468, biotin (EZ-Link NHS-PEG4-Biotin, amine coupling)). As to the kind of experiment: BLI; […], pH 7.2; 600 s association, 600 s dissociation; global 1:1 fit.

T7 sequence (P01426 whole entry, one chain of several): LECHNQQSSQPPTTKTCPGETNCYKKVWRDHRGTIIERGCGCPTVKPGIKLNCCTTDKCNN
T10 sequence (P14556 whole entry): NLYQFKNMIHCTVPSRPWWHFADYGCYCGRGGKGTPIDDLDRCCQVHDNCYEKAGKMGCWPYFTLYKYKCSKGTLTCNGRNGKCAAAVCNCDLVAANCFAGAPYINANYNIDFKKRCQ
Sequence of CTx-10 (Naja pallida (Kenya, L1321)); Latoxan …, UniProt P01468, biotin (EZ-Link NHS-PEG4-Biotin, amine coupling)) (P01468 whole entry, looked up): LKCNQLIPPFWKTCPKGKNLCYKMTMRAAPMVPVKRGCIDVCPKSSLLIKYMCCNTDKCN
T13 sequence (P01468 whole entry, looked up, one chain of several): as the sequence (P01468 whole entry, looked up) above

B1: VHH9 a-lNTx (VHH)
VHH: QVQLQESGGGLVQPGGSLRLSCTASGSIFSTVNTMGWYRQAPGKQRELVAAITGGGSTNYADSVKGRFTISRDNVENTVHLRMNALKPEDTAVYYCNFQEYCSAYGCYELPHDYWGQGTQVTVSS
notes: source: E. coli BL21 (DE3), purified (Ni resin)
Consider B1, for which, in [1], binding was characterised by a dissociation constant (Kd) of 1.18 nM; the off-rate (koff) – broadly, the rate constant with which the complex falls apart – came out at 0.000203 s⁻¹; the on-rate (kon) – broadly, a measure of how fast the partners come together – came to 173000 M⁻¹ s⁻¹. Also, in assay [2], the dissociation constant (Kd) (as a rule, a measure of binding affinity in units of concentration) is 0.753 nM; the off-rate (koff) was 2.71e-05 s⁻¹; the kon worked out at 36000 M⁻¹ s⁻¹.

B2: VHH5 a-sNTx (VHH)
VHH: QVQLQESGGGLVRPGGSLRLSCAVSGVSESIFANYVVGWFRQQDSGTGRDLVAQSSSDDEYNHVSGSVKGRFTISRDNAKNTVSLQMDNLKPEDTAIYICAAAIGPGDNYIYWGQGTQVTVSS
notes: as for B1
Consider B2, for which the Kd was determined as 0.388 nM in assay [3], 5.46 nM in [4], 16.9 nM in assay [5] and 1.9 nM in assay [6]. Moreover, the koff in assay [3] came out at 1.44e-05 s⁻¹; in assay [4], 0.000163 s⁻¹; in [5] it was 0.000631 s⁻¹; in assay [6], 4.72e-05 s⁻¹. The kon in assay [3] came out at 37100 M⁻¹ s⁻¹; in assay [4] it was 29800 M⁻¹ s⁻¹; in assay [5], 37400 M⁻¹ s⁻¹; in [6], 24900 M⁻¹ s⁻¹.

B3: VHH5 a-sNTx (VHH)
VHH: B2 VHH
notes: also called anti-sNTx VHH; source: E. coli BL21 (DE3), purified (Ni-NTA)
B3: in assay [7], the binding result was “binds”.

B4: VHH17 a-KUN (VHH)
VHH: QVQLQESGGGLVQPGGSLRLSCITSGSNFDDLSVGWFRQAPGKEREGVSCFSSSDGSTYYVDSVKGRFTMSRDNAKNTVYLQMNNLKPEDTAVYYCTADGFPYPSETMCSIPGGPDSVAWGQGTQVTVSS
notes: as for B1
In assay [8], B4 came in with a Kd of less than 0.001 nM, a koff of less than 1e-07 s⁻¹ and an association rate constant (kon) of 86900 M⁻¹ s⁻¹. In assay [9], this molecule gave a Kd of 0.0405 nM, an off-rate constant (koff) of 8.43e-07 s⁻¹ and an on-rate (kon) of 20800 M⁻¹ s⁻¹.

B5: VHH17 a-KUN (VHH)
VHH: B4 VHH
notes: source: E. coli BL21 (DE3), purified (Ni-NTA)
On to B5, for which the binding result in assay [10] is recorded as “binds”.

B6: VHH20 a-PLA2 (VHH)
VHH: QVQLQESGGGLAQAGGSLRLSCAASGLAFSNYSMGWARQAPGKEREFVAAISWSHQPTYYADSVKGRFTISRDNAKNTLYLQMNSLKPEDTAVYYCAADSRPNSYRLGGPGNYWGQGTQVTVSS
notes: also called anti-PLA2 VHH
For B6, in assay [11], the binding result is given as “binds”.

B7:  (VHH)
VHH: QVQLQESGGGLVQAGGSLRLSCAAPGFTFDNYAIGWFRQAPGKEREAVSMIDVNDGDTYYADSVKGRFATSIDNARITAYLQMNSLKPEDTAVYYCAAGEQGGIETEDDYGMDYYGKGTQVTVSS
notes: also called VHH4; source: E. coli BL21 (DE3), purified (Ni resin)
On to B7, for which the binding result in [12] is given as “no binding (tested: 480 nM)”.

B8: VHH15 a-Og XI (VHH)
VHH: QVQLQESGGGAVPAGGSLTLSCAASGRTLSDYTMGWFRQAPGKEREIVGAISWNDGYTYYDDSVKGRFTISRDNAKNTMYLQMNSLKPEDTAVYYCAAQAPEMVRSGNFGSWGPGTQVTVSS
notes: as for B1
In [13], B8 showed a Kd of 2.19 nM, a dissociation rate constant (koff) of 0.000161 s⁻¹ and a kon of 73400 M⁻¹ s⁻¹. Moreover, in assay [14], the equilibrium dissociation constant (Kd) was determined as 2.16 nM, the off-rate (koff) turned out to be 0.000122 s⁻¹ and the kon is 56700 M⁻¹ s⁻¹.

B9:  (VHH)
VHH: QVQLQESGGGLVQAGGSLRLSCAASGRTFSSYAMAWFRQAPGKEREFVASISWNGDSTYYADSVKGRFTISGDNAKNTWYLQMKSLKPEDTAVYYCNTEDEGSGTYYEWGQGTQVTVSS
notes: also called VHH1; source: E. coli BL21 (DE3), purified (Ni resin)
With B9, the binding result in assay [12] is reported as “no binding (tested: 480 nM)”.

B10:  (VHH)
VHH: B9 VHH
notes: also called anti-CTx VHH; source: E. coli BL21 (DE3), purified (Ni-NTA)
As for B10, the binding result in assay [15] and in assay [16] was “binds” throughout.
